Source: article PMC11032339

Experiments:
[1] = target: soluble full-length recombinant ADAMTS13 (UniProt Q76LX8); assay: SPR; Biacore T200; ADAMTS13, MDTCS (or fibrinogen) immobilised on CM5 by amine coupling (500-1000 RU); analytes 0-7 µM (or 0-3.5 µM) with 5 mM AEBSF and 10 µM VFKck; 20 mM HEPES-NaOH, 150 mM NaCl, pH 7.4, 0.01% Tween-20, 10 mM CaCl2, 10 µM ZnCl2; 20 µl/min, 25 °C; equilibrium responses fitted to a one-site binding model
fibrinogen = assay: as above
[2] = target: soluble full-length recombinant ADAMTS13 (UniProt Q76LX8)

Chain of UniProt Q76LX8 (Q76LX8 75-1427): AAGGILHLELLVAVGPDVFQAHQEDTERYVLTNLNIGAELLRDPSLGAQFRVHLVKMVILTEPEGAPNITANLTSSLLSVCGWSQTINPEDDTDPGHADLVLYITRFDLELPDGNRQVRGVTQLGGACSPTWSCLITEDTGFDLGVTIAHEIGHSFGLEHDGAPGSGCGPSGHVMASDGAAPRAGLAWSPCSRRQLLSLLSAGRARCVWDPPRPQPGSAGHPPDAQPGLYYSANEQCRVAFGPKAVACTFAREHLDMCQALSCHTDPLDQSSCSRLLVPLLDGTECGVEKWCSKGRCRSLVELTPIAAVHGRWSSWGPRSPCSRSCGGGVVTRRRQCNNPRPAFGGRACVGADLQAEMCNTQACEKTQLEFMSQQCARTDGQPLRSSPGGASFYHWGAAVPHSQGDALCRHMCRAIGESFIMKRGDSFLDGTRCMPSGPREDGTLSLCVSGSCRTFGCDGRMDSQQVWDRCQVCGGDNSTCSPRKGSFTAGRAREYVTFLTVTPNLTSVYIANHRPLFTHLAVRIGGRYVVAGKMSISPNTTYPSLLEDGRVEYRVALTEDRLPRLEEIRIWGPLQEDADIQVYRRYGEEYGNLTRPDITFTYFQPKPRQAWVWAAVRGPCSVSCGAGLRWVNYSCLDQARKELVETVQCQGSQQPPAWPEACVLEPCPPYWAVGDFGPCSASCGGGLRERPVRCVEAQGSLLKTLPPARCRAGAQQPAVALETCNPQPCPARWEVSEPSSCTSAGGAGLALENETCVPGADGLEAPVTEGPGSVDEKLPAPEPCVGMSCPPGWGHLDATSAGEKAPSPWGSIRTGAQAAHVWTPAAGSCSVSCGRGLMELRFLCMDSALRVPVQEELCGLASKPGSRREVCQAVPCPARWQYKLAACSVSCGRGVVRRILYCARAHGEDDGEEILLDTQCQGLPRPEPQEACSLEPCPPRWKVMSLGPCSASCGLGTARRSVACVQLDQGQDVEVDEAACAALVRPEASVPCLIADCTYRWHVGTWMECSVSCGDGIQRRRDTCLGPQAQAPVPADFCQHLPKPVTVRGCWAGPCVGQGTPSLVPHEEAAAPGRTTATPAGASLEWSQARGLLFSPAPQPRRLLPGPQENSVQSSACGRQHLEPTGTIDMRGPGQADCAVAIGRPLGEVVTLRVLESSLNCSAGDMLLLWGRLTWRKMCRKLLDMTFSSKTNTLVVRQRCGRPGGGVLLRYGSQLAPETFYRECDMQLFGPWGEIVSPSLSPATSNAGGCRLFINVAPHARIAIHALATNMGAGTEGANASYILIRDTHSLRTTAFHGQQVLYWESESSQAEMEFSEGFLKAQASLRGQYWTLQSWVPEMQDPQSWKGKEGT

Substance | Kd [1] [nM] | Kd (fibrinogen) [nM] | rate of degradation of 100 nM ADAMTS13 by 10 nM active plasmin (Prolytix, not VFK-blocked) at 37 °C in the presence of 5 mM TXA; Western blot densitometry of the intact ADAMTS13 band [2] [nM/min] | rate of degradation of 100 nM ADAMTS13 by 10 nM active plasmin (Prolytix, not VFK-blocked) at 37 °C without TXA; Western blot densitometry of the intact ADAMTS13 band [2] [nM/min]
Lys-plasminogen (natural protein) | 1000 |  |  | 
Glu-plasminogen (natural protein) | 2800 |  |  | 
17-kringle form of apolipoprotein(a) (natural protein) | 4000 | 2400 |  | 

Continued by falling Kd [1], values first:

Kd [1] [nM] | Kd (fibrinogen) [nM] | rate of degradation of 100 nM ADAMTS13 by 10 nM active plasmin (Prolytix, not VFK-blocked) at 37 °C in the presence of 5 mM TXA; Western blot densitometry of the intact ADAMTS13 band [2] [nM/min] | rate of degradation of 100 nM ADAMTS13 by 10 nM active plasmin (Prolytix, not VFK-blocked) at 37 °C without TXA; Western blot densitometry of the intact ADAMTS13 band [2] [nM/min] | Substance
1800 |  | 0.05 | 1.6 | VFK-plasmin (enzyme)
1500 |  |  |  | Mini-plasminogen (domain or fragment)
